Reference: the nanobody polyreactivity screen of Harvey et al. (2022)

Assay: yeast display, Sf9 membrane polyspecificity reagent, FACS + sequencing; frameworks hold sequencing errors
Summary of the method: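 Galactose-induced (36–48 hours) yeast carrying a synthetic nanobody display library were exposed to 10% biotinylated, detergent-solubilized Sf9 membrane reagent at 4 °C for 1 hour. FACS followed streptavidin microbead enrichment, using low and high (top ~1%) gates for expression (anti-HA) and reagent binding (streptavidin). Colony PCR, MiSeq 2 × 250 sequencing and CDR-length filtering followed. Labels for polyreactivity reflect the gate of origin.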

Sequence	polyreactivity (PSR sort gate)
QVQLVESVGGLVQAGGSLRLSCAASGFIFGYNAMGWYRQAPGKERELVAAIDSGDSTYYADSVKGRFTISRDNAKNTVYLQMNSLKPEDTAVYFCATDVTFVYDFGYFQYDYWGQGTQVTVSS	low polyreactivity
QVQLVESVGGLVQAGGSLRLSCAASGFIFWDYAMGWYRQAPGKERELVAAISDSGGDTYYADSVKGRFTISRDIAKNTVYLQMNSLKPEDTAVYYCAADVELWVFRGQQYDYWGQGTQVTVSS	low polyreactivity
QVQLVESVGGLVQAGGSLRLSCAASGFTFHGYAMGWYRQAAGKERELVAAIRSGDRTYYADSVKGRFTISRDNAKNTVYLQMNSLKPEDTAVYYCDAGSYFRDSYARIYRWFYYWGQGTQVTVSS	low polyreactivity
QVQLVESVGGLVQAGGSLRLSCAASGFTFSSYSMGWYRQAPGKERELVAAITISGGRTYYADSVKGRFTISRDNAKNTVYLQMNSLKPEDTAVYYCAARYVEGQNHYGYRGQGTQVTVSS	high polyreactivity
QVQLVESVGGLVQAGGSLRLSCAASGFTFVDNAMGWYRQAPGKERELVAAISWTGVGSTYYADSVKGRFTISRDNAKNTVYLQMNSLKPEETAVYYCAADGLSRGVPDEFDYWGQGTQVTVSS	low polyreactivity
QVQLVESVGGLVQAGGSLRLSCAASGGKFISYAMGRYRQAPRKERELVAAITSSGGSTYDADSVKGRFTISRDDAKNTVYLQMNSLKPEDTGVYYCAADHSTVLDVGSWGQGTQVTVSS	low polyreactivity
QVQLVESVGGLVQAGGSLRLSCAASGGMGWYRQAPGKERELVATISSVGSTNYADSVKGRFTISRDNAKNTVYLQMNSLKPEDTAVYYCNATGVQYFLYGYWGQGTQVTVSS	low polyreactivity
QVQLVESVGGLVQAGGSLRLSCAASGGTFQHYTMGWYRQAPGKERELVAAISLSGTRTYYADSVKGRFTISRDNAKNTVYLQMNSLKPEDTAVYYCAARYGVEYWGQGTQVTVSS	low polyreactivity
QVQLVESVGGLVQAGGSLRLSCAASGITFRWNAMGRYRQATGKERELVAAIRRSGRTYYADSVKGRFTISRDNAKNTVYLQMNSLKPEDTAVYYCAAVSGYRSSKYDYWGQGTQVTVSS	high polyreactivity
QVQLVESVGGLVQAGGSLRLSCAASGITFWKYTMGWYRQAPGKERELVAAITGRGGSTYYADSVKGRFTISRDNAKNTVYLQMNSLKPEDTAVYYCAADPYHLQTRFSGLAEFYYWGQGTQVTVSS	low polyreactivity
QVQLVESVGGLVQAGGSLRLSCAASGITFYKYAMGWYRQAPGKERELVASIDRVGITNYADSVKGRFTISRDNAKNTVYLQMNSLKPEDTAVFYCNADYYRYYSITYGGDYWGQGTQVTVSS	high polyreactivity
QVQLVESVGGLVQAGGSLRLSCAASGITFYWYAMGWYRQAPGKERELVASITGNGGGTSYADSVKGRFTISRDNAKNTVYLQMNSLKPEDTAVYYCNTSVGGKEYDSWGQGTQVTVSS	low polyreactivity
QVQLVESVGGLVQAGGSLRLSCAASGLIFFGNTMGWYRQAPGKDRELVAAISKRGTTYYADSVKGRFKISRDNAKNTVYLQMNSLKPEDTAVYYCAAGGTFFHRLDYYYRSDYWGQGTQVTVSS	high polyreactivity
QVQLVESVGGLVQAGGSLRLSCAASGLILRFYAMVWYRQAPGKERELVAAISRNGGSTYYADSVKGRFTISRDNAKNTVYLQMNSLKPEDTAVYYCAVEYYVSWKLDYWGQGTQVTVSS	high polyreactivity
QVQLVESVGGLVQAGGSLRLSCAASGRIFEVYVMGWYRQAPGKERELVAAISTGGSTYYADSVKGRFTISRDNAKNTVYLQMNSLKPEDTAVYYCAARKTRRYGSGHDYWGQGTQVTVSS	high polyreactivity
QVQLVESVGGLVQAGGSLRLSCAASGRIFHRYTMGWYRQAPGKEREFVAAITTRAGSTYYADSVKGRFTISRDNAKNTVYLQMNSLKPEDTAVYYCNIRRHSLYGGTTTRYDYWGQGTQVTVSS	high polyreactivity

Sequence	polyreactivity (PSR sort gate)
QVQLVESVGGLVQAGGSLRLSCAASGRIFLVYVMGWYRQAPGKERELVAAISASDGSTYYADSVKGRFTISRDNAKNTVYLQMNSLKPEDTAVYYCAEWGYSLDSNSYRELNYWGQGTQVTVSS	low polyreactivity
QVQLVESVGGLVQAGGSLRLSCAASGRTFRTYTMGWYRQAPGKERGLVAAITSTGSTYYADSVKGRFTISRDNAKNTVYLQMNSLKPEDTAVYYCNVVRRLRPYRGTGPNLEYYYWGQGTQVTVSS	high polyreactivity
QVQLVESVGGLVQAGGSLRLSCAASGRTFRYYAMGWYRQAPGKERELVAAISKTGGSTYYADSVKGRFTISRDNAKNTVYLQMNSLKPEDTAVYYCAAQSGWGYSTYYYWGQGTQVTVSS	high polyreactivity
QVQLVESVGGLVQAGGSLRLSCAASGRTFVLNTMGWYRQAPGKERELVAAISKSGGSTYYADSVKGRFTISRDNAKNTVYLQMNSLKPEDTAVYYCAARTRQLEYNSWGEGTQVTVSS	high polyreactivity
QVQLVESVGGLVQAGGSLRLSCAASGRTFVVYAMGWYRQEPGKERELVAAIRVSDGSTYYADSEKGRFTISREISKNTVYLQMNSLNPEDTAVYYCNAESFRGFYYWGQGTQVTVSS	high polyreactivity
QVQLVESVGGLVQAGGSLRLSCAASGRTIRWYAMGWYRQAPGKERELVAAITFRGGRTYYADSVKGRFTISRDNEKNTVYLQMNSMKPEDTAVYYCNAVTYSSPYRFDYWGQGTQVTLSS	low polyreactivity
QVQLVESVGGLVQAGGSLRLSCAASGRTISRNAMGWYRQAPGKERELVAAISASGGRTYYADSVKGRFTISRDNAKNTVYLQMKSLKPEDTEVYFCAASTTGYRYYDYCGQGTQVTVSS	high polyreactivity
QVQLVESVGGLVQAGGSLRLSCAASGSIFEYYAMGWYRQAPGKERELVAAITRSGGSTYYADSVKGRFTISRDNAKNTVYLQMNSLKPEDTAVYYCAVRGYSSYTYDEYYVGYDYWGQGTQVTVSS	low polyreactivity
QVQLVESVGGLVQAGGSLRLSCAASGSIFRVYAMGWYRQAPGKERELVATISGSAGRTYYADSVKGRFTISRDNAKNTVYLQMNSLKPEDTAVYYCAARWYKEYYWGQGTQVTVSS	high polyreactivity
QVQLVESVGGLVQAGGSLRLSCAASGSIFSPYAMGWYRQAPGKERELVAGISRDGSTYYADSVKGRFTISRDNAKNTVYLQMNSMKPEDTAVYYCAATEFRYFEGGAYFEGYYWGQGTQVTVSS	low polyreactivity
QVQLVESVGGLVQAGGSLRLSCAASGSIFSRNAMGWYRQAPGKERELVAAIRSTVSTYYADSVKGRFTISRDNAKNTVYLQMNSLKPEDTAVYYCATVTHVSPNKYYYWGQGTQVTVSS	high polyreactivity
QVQLVESVGGLVQAGGSLRLSCAASGSIFYNYAMGWYRQAPGKERELVAAISSNGGSTYYADSVKGRFTISRDIAKNTVYLQMNSLKPEDTAVYYCAARYWYPYWYRYSAYDYWGQGTQVTVSS	high polyreactivity
QVQLVESVGGLVQAGGSLRLSCAASGSIYRSYTMGWYRQAPRKEREFVAAITKRGGSTYYADSVKGRFTISRDNAKNTVYLQMISLKPEDTAVYYCAAVAGHYYYFRELGYWGQGTQVTVSS	high polyreactivity
QVQLVESVGGLVQAGGSLRLSCAASGSTFAGYAMGWYRQAPGKERELVAAISGGRTYYADSVKGRFTISRDNAKNTVYLQMNSLQPEDTAVYYCAKRYFYYTAYNAYGYWGQGTQVTVSS	high polyreactivity
QVQLVESVGGLVQAGGSLRLSCAASGSTFGTYAMGWYRQAPGKVSELVAAISNSGGSTYYADSVKGRFTISRDNAKNTVYLQMNSLKPEDTAVYYCNTDGLVRNGPFFSWGQGTQVTVSS	low polyreactivity
